Assay results as given in patent publication US6291235.
Blank lines part the entries; values can stand above or below the substance they belong to.

Assays:
[1] = molecular target: rabbit muscle actin (rabbit) (UniProt P68135); assay: surface plasmon resonance (BIAcore), F(ab)'2 immobilised, 0.3 µg rabbit muscle actin injected
[2] = molecular target: A33 antigen on the surface of human colon cancer cells (human); assay: rosetting assay on SNC-2B cells
[3] = molecular target: A33 antigen on the surface of human colon cancer cells (human); assay: rosetting assay on LS 180 cells
[4] = molecular target: A33 antigen on the surface of human colon cancer cells (human); assay: rosetting assay on SK-CO-17 cells
[5] = molecular target: A33 antigen on the surface of human colon cancer cells (human); assay: rosetting assay on SK-CO-19 cells
[6] = molecular target: A33 antigen on the surface of human colon cancer cells (human); assay: rosetting assay on SW1222 cells
[7] = molecular target: A33 antigen on the surface of human colon cancer cells (human); assay: rosetting assay on SW403 cells
[8] = molecular target: A33 antigen on the surface of human colon cancer cells (human); assay: rosetting assay on ASPC-1 (pancreatic) cells
[9] = molecular target: A33 antigen on the surface of human colon cancer cells (human); assay: rosetting assay on NCI-H508 cells
[10] = molecular target: A33 antigen on the surface of human colon cancer cells (human); assay: rosetting assay on LOVO cells
[11] = molecular target: A33 antigen on the surface of human colon cancer cells (human); assay: rosetting assay on LS 174T cells
[12] = molecular target: A33 antigen on the surface of human colon cancer cells (human); assay: rosetting assay on LIM 1215 cells
[13] = molecular target: rabbit muscle actin (rabbit) (UniProt P68135); assay: surface plasmon resonance (BIAcore), whole A33 immobilised, 0.3 µg rabbit muscle actin injected

signal at the end of the injection pulse (RU) [1]: 4 RU
Substance: F(ab)'2 fragment of A33 humanized monoclonal antibody

Rosetting A. Titer [2]: 4096 | Rosetting A. Titer [3]: 2048 | Rosetting A. Titer [4]: 512 | Rosetting A. Titer [5]: 8192 | Rosetting A. Titer [6]: 4096 | Rosetting A. Titer [7]: 8192 | Rosetting A. Titer [8]: 8192 | Rosetting A. Titer [9]: 4096 | Rosetting A. Titer [10]: 4096 | Rosetting A. Titer [11]: 4096 | Rosetting A. Titer [12]: 8192
Substance: monoclonal antibody A33 (mAb A33), murine immunoglobulin, isotype IgG2a, secreted by hybridoma ATCC No. HB 8779

signal at the end of the injection pulse (RU) [13]: 247 RU
Substance: whole A33 (A33 IgG) immobilised on the biosensor surface (antibody)
